{
  "source": "patent US20230074134A1",
  "about": "“METHOD FOR PREPARING SOY LEGHEMOGLOBIN USING ESCHERICHIA COLI” (iNtRON Biotechnology, Inc., priority 2020, published 2023)",
  "tested_on": "iron-deficiency-anemia-induced animals",
  "assay_type": "in vivo, Sprague-Dawley rats (female)",
  "method": "The composition containing soy leghemoglobin prepared according to the present invention was administered to iron-deficiency-anemia-induced animals, whereby the effectiveness of the composition containing soy leghemoglobin on alleviating anemia was evaluated. Specifically, after 2 weeks acclimation period, thirty 9-week old Sprague-Dawley rats (female) were divided into 3 groups of 10 rats per group, among which one group was fed with normal feed in an amount of 10% of body weight daily for one month (Group 1; control), and the remaining two groups were fed with iron-deficient feed in an amount of 10% of body weight daily for 6 weeks to induce iron-deficiency anemia (Group 2 and Group 3). After 6 weeks of feeding, it was confirmed that iron-deficiency anemia was induced in the individual rat belonging to Group 2 and Group 3. Then, one of the anemia-induced groups was orally administered once a day with saline alone (Group 2), and the other anemia-induced group was orally administered once a day with solution containing soy leghemoglobin (0.1 mg Fe/500 μl solution, Group 3). The administration continued for 5 weeks. During 5 weeks of administration to Group 2 and Group 3, Group 1 was continuously fed with normal feed, and Group 2 and Group 3 were fed with iron-deficient feed. […] After 5 weeks of administration, blood was collected, and whether anemia was alleviated was evaluated.",
  "key": {"[1]": {"details": "iron-deficient feed, oral once a day, 0.1 mg Fe/500 μl solution, 5 weeks, blood collected after 5 weeks"}},
  "data": [
    {"molecule": "soy leghemoglobin (protein, heme cofactor; Soy leghmoglobin) MGAFTEKQEALVSSSFEAFKANIPQYSVVFYTSILEKAPAAKDLFSFLSNGVDPSNPKLTGHAEKLFGLVRDSAGQLKANGTVVADAALGSIHAQKAITDPQFVVVKEALLKTIKEAVGDKWSDELSSAWEVAYDELAAAIKKAF", "values": [
      {"measurement": "Alleviation of iron-deficiency anemia (conclusion)", "setting": "anemia-induced rats, 5 weeks oral administration", "result": "effective at alleviating iron-deficiency anemia"},
      {"measurement": "Weight of rats on 5 weeks after administration", "setting": "iron-deficient feed, oral once a day, 0.1 mg Fe/500 μl solution, 5 weeks, anemia-induced female Sprague-Dawley rats", "result": "369.3 ± 1.1", "unit": "g"},
      {"measurement": "Blood test Hematocrit", "setting": "[1]", "result": "31.8 ± 1.9", "unit": "%"},
      {"measurement": "Blood test Hemoglobin content", "setting": "[1]", "result": "14.2 ± 0.4", "unit": "g/dL"}
    ]}
  ]
}
